Reference: article PMC3929782

Biological target: Cy-5-labelled H2A/H2B dimer, wild type (UniProt P02281)
Test: fluorescence polarisation

- Kd: 1000 nM
Substance: RNF168 RING domain (residues 1–189) (from UniProt Q8IYW5 1-189) (domain or fragment)
